Source: paper doi:10.1101/2021.03.08.433449 (bioRxiv, 2021)

How the values were obtained:
[1] = biological target: monomeric human Fc-fused SARS-CoV-2_RBD-SD1 (SARS-CoV-2 (Wuhan-Hu-1), UniProt P0DTC2); experiment: BLI
[2] = biological target: mouse IgG1 Fc fused SARS-CoV-1 RBD (Sino Biological, 40150-V05H) (SARS-CoV-1, isolate not named, UniProt P59594); experiment: BLI
[3] = biological target: SARS-CoV-2 spike expressed on the surface of HEK293 cells (SARS-CoV-2 (Wuhan-Hu-1), UniProt P0DTC2); experiment: flow cytometry on cells

B1: humVHH_S56A (VHH)
VHH: EVQLVESGGGLVQPGGSLRLSCAASGRTFSEYAMGWFRQAPGKEREFVATISWSGGATYYTDSVKGRFTISRDNAKNTVYLQMNSLRPEDTAVYYCAAAGLGTVVSEWDYDYDYWGQGTLVTVSS
For B1, the “fold increase in affinity over humVHH” value [1] was ~7 fold and the binding result [2] was “binds”.

B2: humVHH (VHH)
VHH: EVQLVESGGGLVQPGGSLRLSCAASGRTFSEYAMGWFRQAPGKEREFVATISWSGGSTYYTDSVKGRFTISRDNAKNTVYLQMNSLRPEDTAVYYCAAAGLGTVVSEWDYDYDYWGQGTLVTVSS
B2: binds [1]; binds [3].
